Data from the NTF2 design screens of Basanta et al. (2020).

experiment: protease stability score; higher = more stable; yeast display proteolysis, trypsin and chymotrypsin;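 also: log10 excess protease needed over predicted unfolded state with 0 meaning unfolded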

Sequence	protease stability score
DKEVEEVWKKMLTAQKYGDEKRYKDLADPNVKYNIGDKKIDGRDTYAEEMKKRRDEIRLRMQITDVKQQGDKLHVRFKIEAEINGKPISEDVTAVLVNHNGKVKHYSMHVPHEFFKKQQK	0.213
DKEVIKQLKHFMKALEKGDPDKLVELADPEAKYEYGDRTYKGMSNVAEELVNTRREIRFQLTLQSYEVQGEKARVKAVYVKDRNGKPDNQVVVIEMEAHNGKIKSMQERSDQ	0.501
DKEVNNMAEKFLDAFRTNDPDQVRRLADENASFRVGDKVLTGMTEAVRELHRQVKQMEVRITDVKNSVQGDQANLDIHFDVHDNGKPDTRRMVLVVNVENGRIREVEVNQDD	0.4
DKHAAQVVLEIMHAVDTGNENEVMKLIDPNARVEYGDKSITGREDIARHLIHDAKHINRRWSLKDIDVQGEKVFIKFEYKTNKNGRPDKADVNLEAKAHNGTVTTMRLQETR	0.368
DKHLEDLARTLVHALRTGDPQMINHLFDENARVEVGNRRVHGREDANQRMKEINSQARMHVRLTSLRVDENRADLTVDASARVNGQPNTLRYQFWFHQHNGRITSMSARMSEHDVKQFES	-0.278
DKHQMHILKSIVENEQKGDEKSVSKMVDPNARFHVGDKRISGREQKDEDVQRKKDEIRVQIDKVEFNHSNGRVVVNMDMTIDRNGKPKTFKAQAHATFHNGTATSQTQTNDG	-0.614
DKHRVEHAKRILEIWTNGDEKSVKDLFDPNVRVDVGDKRITGREQLAREWKRRRDEMEWSLTVHEYKDDPNRVDINVHFNRNKNGRPRTQQQHLRIDMDNGSVRQLRIEDSK	0.216
DKKANSMAHDLIRNRNSNNPERLKEMMDPNVEIVIGDKTVNGTHEYERQQRQRDRQIQIDVKSVTFKDRPNHAQVRFDAVFHHNGQPDRRVQEVIIRQRNGKVKHIHVQDTE	-0.365
DKKDVDRVIKLLEQGDWESLVEMMDENARLQVGNKNYHGRTQVRHAATRLQDRIDHVKIDQVDVHNGRVDARFKANINGKTMDVQVRINVDNGHIKYVRVTVRSEELRHELDRLLS	0.961
DKKEHQEAAETFDRALKRGDPDTAMSLFDKDARANVGDKTYQGSEKLSEAMHRLSEEADRFHVRDVHFTNGEVSVNMYLNVNGKRVQVDVHIELSNGRAKEVTFNPDQLNEMQN	-0.119
DKKLNKQMEEWVQAVNTGDSEQLEDLVDPNVRLEVGDKQFHGREEVRRQQTKKIEEIRLHLDLKDVKAENGHAQLDVNVEFEHNGQPNSNRRTLNAVVHNGKIKHLSDKTDP	-0.347
DKKLSRQFREFWRAMEDGDPDKLRENADPNVKYVVGDKTIHGRETYVKEAQDRRREMRVELDTMSINDKGERITVEYVQVNEHNGRPKQAVYRQVILFKNGRIKEVRQTKTD	-0.073
DKKQVHDVARTLVQYYVSGNSERVKQLGKEDVELHAGDRTYHGVDQMAKVVEQFKKYGVELEVKDVKVDGNRVTARVQFHKAGTTWEFKVDVQADGGKVDQVRVNVTEEAIKHIQHG	0.797
DKNNLKRYDKLLKILQTGDEHKAKKLADPNVKVKVGDKEIKGWDRFVHESAKRWREARIELKIKHVDVSGDKVTIDYEAEVEVNGKPIRYTATFRFVVHNGRIKTINFSMDENQRETVKR	0.007
DKQDLDKLRELWEDELNGDHRSLREQVDPNAKVEIGDKEIHGRDDFAKDAKRRKEEIRVEMRVKSLSASGDTIDAKVHLDFKVNGKPIRLTVHMHVKVENGKFVDLNVRIDERQVRKIRK	0.089
DKREQSEIAKEVLRMLLTGDPDQNHKLADKDVQFSVGDRTITGREDLDRWLREMHHHIDTQEVKSLDVNGEDVVIDVVATFNGVHMRFVIRVEVHNGRIVNMRMEVTSEETLKRVDG	-0.092
DKSANHQIEQLMRNINEGDKDKVREQMDPNVEVHVGDKEVHGREQYAREVRKEQEEMRVQFKVEHVKDRNGQAELRIQVQLDHNGKPETRVQHFVAVLDNGRVKSATAKIDK	-0.084
DKSAQDLFRKLLEALDTGDEKTAEENMDPNAHARVGDKEVHGMDEYAKHRATENRRMKIRWNSVNLRVHNGQLNVDVDVEVTENGRPSRSRARVVMRMKNGRIKRLEVNEHK	-0.118

Sequence	protease stability score
DKSMQEEMERVARENDFHRLAELADPNVKWQYGDKHLHGRTAQREFVRLNHEAVDHLEVQDVKFHGENVEIDLVMTVNGKEIKVVLQAHVHNGRIKEMRWQVTNEDEKRKLEEAVS	-0.183
DKTAAHVVHQFLRNVDTGDPKKASDNADPNVTINVGDKEIRGRENLQKEIDKQKKDWRQTVRVTSFKDHNGKVHVDARYTADVNGKPIDDTFQFEMQAHNGKLKYVNVQLDEDKKKEQDS	0.032
DKTHAETVRKLVERGNWEELARMADKDAHVNYGNKSVHGRERVESLLKRFSSRVDHVDLKDVDVQGDHVHMRYVAVFDGRRVDVSAVIFVDNGRIKSIHYRATDEEVKRRMDELLD	1.33
DNDAMRQANTLVEILNTGDPDRFVEYVDPNVDIKIGDKSIHGREDARRWVTELKRQMHIHLSVKRVDVEGEHLNLHADQVNDENGQPDKDHVLIIMRFHNGRVKVLKQEHKS	0.53
DNDAREAARRLLDAWRTGDEDTVRDMADENAKVTVGDKTIQGRDHLVDWIHQHYHEQRVDVKSVHMDAQGDKVDVKLDAVSDRNGQPRRYVEHVKITMKNGKMKSLEMHREG	0.753
DNDHWRKIATDMIKALQEGDRQKVKKLVDKDAKARIGDRDVHGREHIVTLLYEMQQRIDHMQLVDVKVRGEEVVVRYHAKFNGKVVDVSITLHFRNGKVKEMRVDPRAVESLKK	1.22
DNDKLAKDAVDTMDEVLQDGDEKKLNDLFDPNARLRVGDHEIHGREQIHDWIKTRLNQIDHIEMRIVHVRREGEKALARVTFVNQHNGKQDEREAVYRFTVENGRATFEEVNIK	-0.116
DNDRVRKAHKLMRVIETGDPDKVNEYVDPNVHVEYGDKTIHGREELKKFIEKERHEMRVELKRVSADATGNKVDIKVHRVLDKNGKPETNNVRIIIVWDGNKIKSVSFQKDK	0.849
DNDTQHRLAERFNHAVETGDPDKIMKLVPEDVRFTVGDKEYHGRESLSKVIKDFRDHADRVKVESVRVNNGRIDVQMRYNRNGQDRVMTFLLTVHNGKIENVNIQSG	1.58
DNEAARSARRNLKQIERGNEHKVREMADKNAHVRVGDKDLHGREDISTWVKKLKEEMRVRFDLRRVNDKGSTVDLDVTLEMTVNGKPVTMKVTAKLSIHNGKIQSLIWNISDEQKEQRKG	0.336
DNEDAKRVVKLAEHNDFKKWAENADKDVRMKVGDKTWHGRSQFSTAVERLQKNIDHVDLRSVKTHNGRVTIKEQQEVDGRKTDVRFRLQVHNGHIKRVEVQVTDEEDKKTMEKLLS	-0.23
DNEDAQQAIQMLKAELDGDEERAAQLMDPNARFNIGDKEIHGRETFQHWLREVKKHMHVKIDRLEIDVEGDKVDVRMEFVQNHNGKPHRAEATVEVRAENGHVKEVTVDVKG	0.551
DNEEEAKKFVEELKRQYDEGNEHQIANQAPENATARVGDKNYHGRENVETYLRQIVRRADTVEIRIRSVEVHGDNVVVDFHYVLEYNGTRRNVRMKLVLDDVNGRKVALVIVQS	0.572
DNEEHKVLEELIRAIQEGNEKDIKRLIDPNARVNVGDKTYHGREQIVKWWFDLQQELEFEIDIKRWHVNNGQIRADIKYVRNNNGKPESFRADMQVTASNGKFKSVSVHETK	1.43
DNEFREEVKKAIDTGDPLEMVRQADKDVEVHVGDKYWHGREQVEKLMTLWKEQVDHLHVDRITHEPGRVKVDAVAQFNGVEFRFNMVIHAHNGKIKSVQFKNTDEDVKKKLEKILD	-0.288
DNEKALERAEEAARAVARGNEDELRKLAPPDVSAQYGDHRINGMDQVVEQIKEMRRAVDHIKIQTIRKNGNSVTLTVELTYNGQQMHMHVEVEVHNGELKHVRMHVTDEERWRRQES	0.855
DNEKVARNAADKLMTAINTGDPDQFVKLFDENAHVDVGDKTWRGRDKLKEWARKIVEQVDHLRARVTHMDVDGDKASVVFVVTLNKNGKEHSEQHEATAEVSGEQAVFKSLRHK	1.38
DNENVNHVKTWFQNIQENNPDELIKLIDKDARLRVGDKEFHGREQAKKEIEKRIRHIELEFKHVQVDHHNGRVVAHAVYTQNRNGRPKKVNVRYVFQIHNGKIKRAEQDEDG	0.263
